Tests used:
[1] = test system: A375 cells (antigen negative); experiment: Clonogenic assay; format: cell-based, human; settings: 3×10^−9 M, highest concentration tested
Experimental: (§1) The cytotoxicity of maytansinoid conjugated muDS6 antibody was examined using 2 different assay formats in various DS6 positive cell lines. Clonogenic assays were conducted where cells (1000-2500 cells/well) were plated on 6-well plates in 2 ml of conjugate diluted in culture media. […] The wells were washed with PBS and the colonies were stained with a 1% w/v crystal violet/10% v/v formaldehyde/PBS solution. Unbound stain was then washed thoroughly from the wells with distilled water, and the plates were allowed to dry. The colonies were counted using a Leica StereoZoom 4 dissecting microscope.
(§2) Plating efficiency (PE) was calculated as the number of colonies/number of cells plated. Surviving fraction was calculated as PE of treated cells/PE of non-treated cells. The IC50 concentration was determined by graphing the surviving fraction of cells vs. the molar concentration of the conjugate.

[2] = test system: cervical cell lines (HeLa, KB, and WISH); experiment: Clonogenic assay; format: cell-based, human
Experimental: as §1, §2

pancreatic cell lines = experiment: Clonogenic assay; format: cell-based, human
Experimental: as §1, §2

TOV-21G tumor xenografts = experiment: Subcutaneous TOV-21G xenograft efficacy study; format: in vivo, SCID mice
Experimental: OVCAR5 (FIG. 26A and FIG. 26B), TOV-21 G (FIG. 26C and FIG. 26D), HPAC (FIG. 26E and FIG. 26F), and HeLa (FIG. 26G and FIG. 26H) cells were inoculated on day 0, and immunoconjugate treatments were given on day 6 and 13. PBS control animals were euthanized once tumor volumes exceeded 1000 mm^3. The conjugate was given at a dose of 600 μg/kg DM1, corresponding to an antibody concentration 27.7 mg/kg. Tumor volume (FIG. 26A, FIG. 26C, FIG. 26E, and FIG. 26G) and body weight (FIG. 26B, FIG. 26D, FIG. 26F, and FIG. 26H) of the mice were monitored during the course of the study.
muDS6-DM 1 activity was further tested on a panel of subcutaneous xenograft models (see FIG. 26). […] OVCAR5 cells and TOV-21 G are ovarian tumor cell lines; HPAC is a pancreatic tumor cell line; HeLa is a cervical tumor cell line. OVCAR5 and TOV-21G cells have low surface CA6 expression; HeLa cells have an intermediate level of surface CA6 expression; HPAC cells have a high CA6 density of surface expression. TOV-21G and HPAC cells are maytansine sensitive; OVCAR5 and HeLa cells are 2-7-fold less maytansine sensitive.
The 4 cell-lines were grown in vitro, collected, and 1×10^7 cells in a 100 μL of serum free medium were injected under the right shoulder of each mouse (6 mice per model) and allowed to grow for 6 days to an average tumor volume of 57.6±6.7 and 90.2±13.4 mm^3 for the test and control groups respectively of OVCAR5, 147.1±29.6 and 176.2±18.9 mm^3 for the test and control groups respectively of HPAC, 194.3±37.2 and 201.7±71.7 mm^3 for the test and control groups respectively of HeLa, and 96.6±22.8 and 155.6±13.4 mm^3 for the test and control groups respectively of TOV-21G, at which time drug treatment was initiated. For each model three control mice were treated with two weekly doses of PBS and three test mice were treated with two weekly doses of conjugate (600 μg/kg DM1) intravenously. Toxic responses were monitored daily during the treatment and tumor volumes and body weights were monitored throughout the study. […]

KB cells = experiment: Flow cytometry binding assay; set-up: species or system human; settings: KB
Experimental: Cells were maintained in a 37° C., 5% CO2 humidified incubator.
Cells ([…]) were incubated, on ice for 3-4 h, with serially diluted concentrations of the DS6 antibody prepared in FACS buffer (2% goat serum, RPMI) into 96-well plates. The cells were spun down in a table top centrifuge at 1500 rpm for 5 min at 4° C. After removing the media, the wells were then refilled with 150 μl of FACS buffer. The wash step was then repeated. FITC-labeled goat anti-mouse IgG (Jackson Immunoresearch) was diluted 1:100 to FACS buffer and incubated with the cells for 1 h on ice. The plate was covered in foil to prevent photobleaching of the signal. After two washes, the cells were fixed with 1% formaldehyde and analyzed on a flow cytometer.
The affinity of the purified huIgG was compared with muDS6 by flow cytometry. In the first set of experiments direct binding to a CA6-expressing cell line, KB, was measured. […] To confirm that the huDS6 versions retain the affinity of muDS6, competitive binding experiments were conducted. The advantage of this format is that the same detection system is used for both murine and human antibodies; that is biotin-muDS6/streptavidin-DTAF.
The binding was conducted essentially as described for FIG. 20 except that KB cells were used rather than CaOv-3 cells.

Caov-3 cells = experiment: Indirect cell viability assay with anti-mouse IgG (H+L) DM1 conjugate; format: cell-based, human; settings: without secondary conjugate
HPAC cells = experiment: Complement-dependent cytotoxicity (CDC) assay; format: cell-based; settings: 5% human or rabbit serum
Experimental: (§3) To further test the inherent activity of naked muDS6, a complement-dependent cytotoxicity (CDC) assay using muDS6 was conducted. HPAC and ZR-75-1 cells (25000 cells/well) were plated in 96 well plates, in the presence of 5% human or rabbit serum and various dilutions of muDS6, in 200 μl of RHBP media (RPMI-1640, 0.1% BSA, 20 mM HEPES (pH 7.2-7.4), 100 U/ml penicillin and 100 ug/ml streptomycin). The cells were incubated for 2 h at 37° C. Then Alamar Blue (10% of final concentration) reagent (Biosource) was added to the supernatant. The cells were incubated for 5-24 hrs before measuring fluorescence.

ZR-75-1 cells = experiment: Complement-dependent cytotoxicity (CDC) assay; format: cell-based; settings: 5% human or rabbit serum
Experimental: as §3

[3] = 600 μg/kg DM1, two weekly doses

Molecule	effect of conjugate on antigen negative cells [1]	sensitivity to the conjugate [2]	sensitivity to the conjugate (pancreatic cell lines)	body weight (TOV-21G tumor xenografts; [3])	tumor status at day 61 (TOV-21G tumor xenografts; [3])	tumor regression (TOV-21G tumor xenografts; 600 μg/kg DM1 i.v., two weekly doses)	MMF (average maximum relative mean fluorescence) (KB cells)	activity of naked antibody in cell cultures (Caov-3 cells)	CDC mediated effect (HPAC cells; listed as Murine DS6)	CDC mediated effect (HPAC cells; listed as muDS6)	CDC mediated effect (ZR-75-1 cells; listed as Murine DS6)	CDC mediated effect (ZR-75-1 cells; listed as muDS6)
DS6-DM1: muDS6 antibody modified with SPP and conjugated to the maytansinoid DM1 (conjugate) VH: QAYLQQSGAELVRSGASVKMSCKASGYTFTSYNMHWVKQTPGQGLEWIGYIYPGNGATNYNQKFKGKATLTADPSSSTAYMQISSLTSEDSAVYFCARGDSVPFAYWGQGTLVTVSA VL: QIVLTQSPAIMSASPGEKVTITCSAHSSVSFMHWFQQKPGTSPKLWIYSTSSLASGVPARFGGSGSGTSYSLTISRMEAEDAATYYCQQRSSFPLTFGAGTKLELKR	only slightly affected	sensitive	None of the pancreatic cell lines appeared to have been affected	no weight loss was observed	tumor-free	complete tumor regression in all mice	–	–	–	–	–	–
DS6: murine anti-CA6 monoclonal antibody DS6 (ATCC deposit number PTA-4449) (antibody, V domains shown) VH: QAYLQQSGAELVRSGASVKMSCKASGYTFTSYNMHWVKQTPGQGLEWIGYIYPGNGATNYNQKFKGKATLTADPSSSTAYMQISSLTSEDSAVYFCARGDSVPFAYWGQGTLVTVSA VL: QIVLTQSPAIMSASPGEKVTITCSAHSSVSFMHWFQQKPGTSPKLWIYSTSSLASGVPARFGGSGSGTSYSLTISRMEAEDAATYYCQQRSSFPLTFGAGTKLELKR	–	–	–	–	–	–	119.56	no proliferative or growth inhibitive activity	no effect	no CDC mediated effect	no effect	no CDC mediated effect
